Columns and labels:
[1] = target: Fcγ receptor (FcγR) on the surface of immune effector cells; test: cell-based or functional assay
[2] = target: human sodium-dependent phosphate transporter 2B (NaPi2b) (human) (UniProt O95436); test: flow cytometry competition, HEK293-6e cells expressing human NaPi2b; row antibody unlabeled at 100 ug/mL (the reference of the calculation); competitor: AF647-labeled v16955 (negative control) at 1 ug/mL
[3] = target: human sodium-dependent phosphate transporter 2B (NaPi2b) (human) (UniProt O95436); test: flow cytometry competition, HEK293-6e cells expressing human NaPi2b; row antibody unlabeled at 100 ug/mL (the reference of the calculation); competitor: AF647-labeled v18993 (lifastuzumab) at 1 ug/mL
[4] = target: human sodium-dependent phosphate transporter 2B (NaPi2b) (human) (UniProt O95436); test: flow cytometry competition, HEK293-6e cells expressing human NaPi2b; row antibody unlabeled at 100 ug/mL (the reference of the calculation); competitor: AF647-labeled v23855 at 1 ug/mL
[5] = target: human sodium-dependent phosphate transporter 2B (NaPi2b) (human) (UniProt O95436); test: flow cytometry competition, HEK293-6e cells expressing human NaPi2b; row antibody unlabeled at 100 ug/mL (the reference of the calculation); competitor: AF647-labeled v18992 (MX35) at 1 ug/mL

Chain of human sodium-dependent phosphate transporter 2B (NaPi2b) (human) (O95436 whole entry): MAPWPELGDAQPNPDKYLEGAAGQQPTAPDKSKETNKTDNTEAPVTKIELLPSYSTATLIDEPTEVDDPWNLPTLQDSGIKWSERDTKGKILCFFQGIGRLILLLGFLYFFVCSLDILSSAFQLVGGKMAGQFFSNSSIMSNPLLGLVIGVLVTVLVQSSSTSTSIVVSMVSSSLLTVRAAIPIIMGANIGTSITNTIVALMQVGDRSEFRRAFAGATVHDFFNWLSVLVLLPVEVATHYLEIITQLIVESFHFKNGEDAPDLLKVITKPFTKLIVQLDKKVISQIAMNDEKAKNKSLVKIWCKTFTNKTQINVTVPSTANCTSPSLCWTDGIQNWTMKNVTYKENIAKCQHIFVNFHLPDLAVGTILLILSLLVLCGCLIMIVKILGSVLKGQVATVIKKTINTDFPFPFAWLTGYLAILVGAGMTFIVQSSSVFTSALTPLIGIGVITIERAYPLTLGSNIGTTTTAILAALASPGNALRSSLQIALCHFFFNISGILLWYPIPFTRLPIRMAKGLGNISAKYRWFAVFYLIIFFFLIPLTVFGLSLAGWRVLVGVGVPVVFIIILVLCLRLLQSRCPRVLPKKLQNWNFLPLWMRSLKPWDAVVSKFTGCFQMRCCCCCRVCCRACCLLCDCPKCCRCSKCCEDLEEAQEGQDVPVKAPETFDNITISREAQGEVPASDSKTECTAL

Row | Substance | % ADCC at 0.0192 nM (25 PBMCs:1 IGROV-1) [1] [%] | % ADCC at 0.48 nM (25 PBMCs:1 IGROV-1) [1] [%] | % ADCC at 12 nM (25 PBMCs:1 IGROV-1) [1] [%] | % Inhibition vs. irrelevant mAb [2] [%] | % Inhibition vs. irrelevant mAb [3] [%] | % Inhibition vs. irrelevant mAb [4] [%] | % Inhibition vs. irrelevant mAb [5] [%]
1 | v18993 (lifastuzumab) (antibody) | 5.96 | 14 | 14.4 | – | – | – | –
2 | v16955 (Palivizumab), anti-RSV negative control antibody | – | – | – | 0 | 0 | 0 | 0
